# Patent US20260242735A1
# Assays:
# human CD33 V138A (human) = human CD33 V138A (human) (UniProt P20138); experiment: flow cytometry on HEK293-T, alanine scan
# human CD33 V231A (human) = human CD33 V231A (human) (UniProt P20138); experiment: alanine scan, flow cytometry, HEK293-T
# [1] = biological target: human CD33 variant Y49S (human) (UniProt P20138); experiment: flow cytometry, IgG on cells expressing the mutant
# human CD33 C41A (human) = human CD33 C41A (human) (UniProt P20138); experiment: alanine scan, flow cytometry
# Chain of human CD33 C41A (human) (P20138 18-364 C41A limits assumed): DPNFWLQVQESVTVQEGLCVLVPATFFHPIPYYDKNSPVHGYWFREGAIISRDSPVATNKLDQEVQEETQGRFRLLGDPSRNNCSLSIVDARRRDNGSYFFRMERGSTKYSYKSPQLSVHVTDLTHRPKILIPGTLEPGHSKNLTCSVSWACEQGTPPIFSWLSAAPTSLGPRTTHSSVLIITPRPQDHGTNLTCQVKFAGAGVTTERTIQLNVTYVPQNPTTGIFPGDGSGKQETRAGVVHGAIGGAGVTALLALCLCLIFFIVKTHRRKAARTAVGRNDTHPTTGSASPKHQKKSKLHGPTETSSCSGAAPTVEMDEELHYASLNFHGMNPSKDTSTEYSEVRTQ
# human CD33 C212A (human) [2] = biological target: human CD33 C212A (human) (UniProt P20138); experiment: alanine scan, flow cytometry, HEK293-T
# Chain of human CD33 C212A (human) (P20138 18-364 C212A limits assumed): as the sequence (P20138 18-364 C41A limits assumed) above, with A24C, C195A counted along it
# [3] = biological target: human CD33 extracellular region F21L (human) (UniProt P20138); experiment: BLI Octet, IgG captured on AHC, CD33 analyte
# Chain of human CD33 extracellular region F21L (human) (P20138 other isoform, or with tags, fused parts or gaps F21L F21L): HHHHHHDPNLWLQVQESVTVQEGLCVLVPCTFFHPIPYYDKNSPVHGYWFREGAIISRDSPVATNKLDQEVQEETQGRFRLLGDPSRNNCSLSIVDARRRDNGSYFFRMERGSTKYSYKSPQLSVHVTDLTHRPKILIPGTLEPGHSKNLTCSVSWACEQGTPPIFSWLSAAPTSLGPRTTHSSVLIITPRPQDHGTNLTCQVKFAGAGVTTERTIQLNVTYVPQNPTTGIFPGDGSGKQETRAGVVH
# human CD33 F44A (human) [4] = biological target: human CD33 F44A (human) (UniProt P20138); experiment: alanine scan, flow cytometry
# Chain of human CD33 F44A (human) (P20138 18-364 F44A limits assumed): as the sequence (P20138 18-364 C41A limits assumed) above, with A24C, F27A counted along it
# human CD33 C101A (human) = human CD33 C101A (human) (UniProt P20138); experiment: flow cytometry on HEK293-T, alanine scan
# Chain of human CD33 C101A (human) (P20138 18-364 C101A limits assumed): as the sequence (P20138 18-364 C41A limits assumed) above, with A24C, C84A counted along it
# human CD33 Y129A (human) [5] = biological target: human CD33 Y129A (human) (UniProt P20138); experiment: flow cytometry on HEK293-T, alanine scan
# Chain of human CD33 Y129A (human) (P20138 18-364 Y129A limits assumed): as the sequence (P20138 18-364 C41A limits assumed) above, with A24C, Y112A counted along it
# human CD33 M120A (human) = human CD33 M120A (human) (UniProt P20138); experiment: flow cytometry on HEK293-T, alanine scan
# Chain of human CD33 M120A (human) (P20138 18-364 M120A limits assumed): as the sequence (P20138 18-364 C41A limits assumed) above, with A24C, M103A counted along it
# [6] = biological target: human CD33 variant Y129S (human) (UniProt P20138); experiment: flow cytometry, IgG on cells expressing the mutant
# Chain of human CD33 variant Y129S (human) (P20138 18-364 Y129S limits assumed): as the sequence (P20138 18-364 C41A limits assumed) above, with A24C, Y112S counted along it
# human CD33 L134R (human) = human CD33 L134R (human) (UniProt P20138); experiment: flow cytometry, transfected cells, IgG
# Chain of human CD33 L134R (human) (P20138 18-364 L134R limits assumed): as the sequence (P20138 18-364 C41A limits assumed) above, with A24C, L117R counted along it
# human CD33 K52F (human) = human CD33 K52F (human) (UniProt P20138); experiment: flow cytometry, transfected cells, IgG
# Chain of human CD33 K52F (human) (P20138 18-364 K52F limits assumed): as the sequence (P20138 18-364 C41A limits assumed) above, with A24C, K35F counted along it
# human CD33 V25A (human) = human CD33 V25A (human) (UniProt P20138); experiment: flow cytometry, alanine scan
# Chain of human CD33 V25A (human) (P20138 18-364 V25A limits assumed): as the sequence (P20138 18-364 C41A limits assumed) above, with V8A, A24C counted along it
# human CD33 F44A (human) [7] = biological target: human CD33 F44A (human) (UniProt P20138); experiment: flow cytometry, alanine scan
# human CD33 Q26A (human) = human CD33 Q26A (human) (UniProt P20138); experiment: flow cytometry, alanine scan
# Chain of human CD33 Q26A (human) (P20138 18-364 Q26A limits assumed): as the sequence (P20138 18-364 C41A limits assumed) above, with Q9A, A24C counted along it
# human CD33 Q24A (human) = human CD33 Q24A (human) (UniProt P20138); experiment: flow cytometry, alanine scan
# Chain of human CD33 Q24A (human) (P20138 18-364 Q24A limits assumed): as the sequence (P20138 18-364 C41A limits assumed) above, with Q7A, A24C counted along it
# human CD33 C212A (human) [8] = biological target: human CD33 C212A (human) (UniProt P20138); experiment: alanine scan, flow cytometry
# human CD33 L134A (human) = human CD33 L134A (human) (UniProt P20138); experiment: alanine scan, flow cytometry, HEK293-T
# Chain of human CD33 L134A (human) (P20138 18-364 L134A limits assumed): as the sequence (P20138 18-364 C41A limits assumed) above, with A24C, L117A counted along it
# human CD33 Y129A (human) [9] = biological target: human CD33 Y129A (human) (UniProt P20138); experiment: alanine scan, flow cytometry, HEK293-T
# Chain of human CD33 V138A (human) (P20138 18-364 V138A limits assumed): as the sequence (P20138 18-364 C41A limits assumed) above, with A24C, V121A counted along it
# Chain of human CD33 variant Y49S (human) (P20138 18-364 Y49S limits assumed): as the sequence (P20138 18-364 C41A limits assumed) above, with A24C, Y32S counted along it
# Chain of human CD33 V231A (human) (P20138 18-364 V231A limits assumed): as the sequence (P20138 18-364 C41A limits assumed) above, with A24C, V214A counted along it
binder,measurement,setting,value
"Refmab #4 (antibody, human IgG1, V domains shown) VH: QVQLVQSGAEVKKPGESVKVSCKASGYTFTNYGMNWVKQAPGQGLEWMGWINTYTGEPTYADKFQGRVTMTTDTSTSTAYMEIRNLGGDDTAVYYCARWSWSDGYYVYFDYWGQGTSVTVSS VL: DIVMTQSPDSLTVSLGERTTINCKSSQSVLDSSTNKNSLAWYQQKPGQPPKLLLSWASTRESGIPDRFSGSGSGTDFTLTIDSPQPEDSATYYCQQSAHFPITFGQGTRLEIK",Mean % WT Binding,human CD33 V138A (human),54.1 % WT binding
same,Mean % WT Binding,human CD33 V231A (human),79.3%
same,Mean % WT Binding,[1],9.8 % of WT
"Refmab #1 (antibody, human IgG1, V domains shown) VH: EVQLVQSGAEVKKPGSSVKVSCKASGYTITDSNIHWVRQAPGQSLEWIGYIYPYNGGTDYNQKFKNRATLTVDNPTNTAYMELSSLRSEDTAFYYCVNGNPWLAYWGQGTLVTVSS VL: DIQLTQSPSTLSASVGDRVTITCRASESLDNYGIRFLTWFQQKPGKAPKLLMYAASNQGSGVPSRFSGSGSGTEFTLTISSLQPDDFATYYCQQTKEVPWSFGQGTKVEVK",Mean % WT Binding,human CD33 C41A (human),14 % WT
same,Mean % WT Binding,human CD33 C212A (human) [2],17.2%
same,% WT binding,[3],1.52%
"Refmab #3 (antibody, human IgG1, V domains shown) VH: QVQLVQSGAEVKKPGSSVKVSCKASGYTFTDYNMHWVRQAPGQGLEWIGYIYPYNGGTGYNQKFKSKATITADESTNTAYMELSSLRSEDTAVYYCARGRPAMDYWGQGTLVTVSS VL: DIQMTQSPSSLSASVGDRVTITCRASESVDNYGISFMNWFQQKPGKAPKLLIYAASNQGSGVPSRFSGSGSGTDFTLTISSLQPDDFATYYCQQSKEVPWTFGQGTKVEIK",Mean % WT Binding,human CD33 F44A (human) [4],18.9 % WT
same,Mean % WT Binding,human CD33 C101A (human),13.6 % WT binding
same,Mean % WT Binding,human CD33 Y129A (human) [5],15.6 % WT binding
same,Mean % WT Binding,human CD33 M120A (human),15.7 % WT binding
same,Mean % WT Binding,[6],7.6 % of WT
"Refmab #6 (antibody, human IgG1, V domains shown) VH: QVQLQQPGAEVVKPGASVKMSCKASGYTFTSYYIHWIKQTPGQGLEWVGVIYPGNDDISYNQKFQGKATLTADKSSTTAYMQLSSLTSEDSAVYYCAREVRLRYFDVWGQGTTVTVSS VL: EIVLTQSPGSLAVSPGERVTMSCKSSQSVFFSSSQKNYLAWYQQIPGQSPRLLIYWASTRESGVPDRFTGSGSGTDFTLTISSVQPEDLAIYYCHQYLSSRTFGQGTKLEIK",Mean % WT Binding,human CD33 L134R (human),1%
same,Mean % WT Binding,human CD33 K52F (human),2.5%
same,Mean % WT Binding,human CD33 V25A (human),16.7 % of WT
same,Mean % WT Binding,human CD33 F44A (human) [7],14 % of WT
same,Mean % WT Binding,human CD33 Q26A (human),76.1 % of WT
same,Mean % WT Binding,human CD33 Q24A (human),18.1 % of WT
same,Mean % WT Binding,human CD33 C212A (human) [8],16.2 % WT binding
same,Mean % WT Binding,human CD33 L134A (human),19.5 % WT binding
same,Mean % WT Binding,human CD33 Y129A (human) [9],76.7 % WT binding
"Refmab #5 (antibody, human IgG1, V domains shown) VH: QVQLVQSGAEVKKPGASVKVSCKASGYTFTNYDINWVRQAPGQGLEWIGWIYPGDGSTKYNEKFKAKATLTADTSTSTAYMELRSLRSDDTAVYYCASGYEDAMDYWGQGTTVTVSS VL: DIQMTQSPSSLSASVGDRVTINCKASQDINSYLSWFQQKPGKAPKTLIYRANRLVDGVPSRFSGSGSGQDYTLTISSLQPEDFATYYCLQYDEFPLTFGGGTKVEIK",Mean % WT Binding,human CD33 L134R (human),5%
same,Mean % WT Binding,human CD33 K52F (human),2.5%
